Assay results published in publication PMC10681739, “High-throughput data and modeling reveal insights into the mechanisms of cooperative DNA-binding by transcription factor proteins”.

Biological target: RUNX1 (Homo sapiens, UniProt Q01196)
Test: gcPBM; 2 nM RUNX1
Conditions: tags: N-terminal GST (pDEST15), kept (PMC6008103); label: surface-attached array probe

RUNX1, sequence (Q01196 whole entry): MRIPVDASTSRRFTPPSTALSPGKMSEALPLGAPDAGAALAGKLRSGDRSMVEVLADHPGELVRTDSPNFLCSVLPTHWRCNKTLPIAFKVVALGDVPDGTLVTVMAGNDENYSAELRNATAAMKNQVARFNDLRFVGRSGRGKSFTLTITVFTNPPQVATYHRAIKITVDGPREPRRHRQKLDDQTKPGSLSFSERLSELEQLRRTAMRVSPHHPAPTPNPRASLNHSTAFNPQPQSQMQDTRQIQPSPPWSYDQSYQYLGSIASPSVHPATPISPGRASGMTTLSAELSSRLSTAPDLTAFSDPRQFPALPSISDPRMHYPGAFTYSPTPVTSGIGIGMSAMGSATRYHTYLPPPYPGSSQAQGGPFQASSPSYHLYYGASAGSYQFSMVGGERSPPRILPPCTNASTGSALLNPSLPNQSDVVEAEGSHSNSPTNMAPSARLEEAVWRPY

Binder	binding signal
Table S3 B row 1118 (dsDNA) DNA 1: CTCCCACCATCCACCGCAGCCACTTTCGCCCGTCCT DNA 2: AGGACGGGCGAAAGTGGCTGCGGTGGATGGTGGGAG	3290 PBM fluorescence, median of replicate spots
Table S3 B row 1822 (dsDNA) DNA 1: TCCTATTTTTACCGCAGTTGCACAGGCAATGAGGCG DNA 2: CGCCTCATTGCCTGTGCAACTGCGGTAAAAATAGGA	3180 PBM fluorescence, median of replicate spots
Table S3 B row 1266 (dsDNA) DNA 1: AGAAAACCACATTCAATTCTCTTTACACAGGGTGTT DNA 2: AACACCCTGTGTAAAGAGAATTGAATGTGGTTTTCT	3040 PBM fluorescence, median of replicate spots
Table S3 B row 1939 (dsDNA) DNA 1: TTGGTTCTGTGGTTTCAGGTGTGAGTTCCAGTGTGC DNA 2: GCACACTGGAACTCACACCTGAAACCACAGAACCAA	2910 PBM fluorescence, median of replicate spots
Table S3 B row 3999 (dsDNA) DNA 1: ATGGAAATGTGGTTAAGAACTCCCTCTTTTACTAGA DNA 2: TCTAGTAAAAGAGGGAGTTCTTAACCACATTTCCAT	2760 PBM fluorescence, median of replicate spots
Table S3 B row 2615 (dsDNA) DNA 1: ACCCCCCAACCACAAGGCCCGTTTGCTGCCTCCCCA DNA 2: TGGGGAGGCAGCAAACGGGCCTTGTGGTTGGGGGGT	2690 PBM fluorescence, median of replicate spots
Table S3 B row 2775 (dsDNA) DNA 1: CCTGTTTCGTGCCATCTGCCCTTCCTTTGTGGTCAA DNA 2: TTGACCACAAAGGAAGGGCAGATGGCACGAAACAGG	2610 PBM fluorescence, median of replicate spots
Table S3 B row 991 (dsDNA) DNA 1: TCCCTTACCTTCATGCTGCCACCAAACCACCAAACC DNA 2: GGTTTGGTGGTTTGGTGGCAGCATGAAGGTAAGGGA	2540 PBM fluorescence, median of replicate spots
Table S3 B row 1676 (dsDNA) DNA 1: GTAAAATGCGGTCGGGTAGAAACCTACTTTCGGTCC DNA 2: GGACCGAAAGTAGGTTTCTACCCGACCGCATTTTAC	2480 PBM fluorescence, median of replicate spots
Table S3 B row 2767 (dsDNA) DNA 1: CTTGCGGTCCCATCTTGCTTTTTTCTTGCGCTTTCC DNA 2: GGAAAGCGCAAGAAAAAAGCAAGATGGGACCGCAAG	2370 PBM fluorescence, median of replicate spots
Table S3 B row 1984 (dsDNA) DNA 1: TAAAACCAAACCACAGATGACACATTGCCTTTCCAC DNA 2: GTGGAAAGGCAATGTGTCATCTGTGGTTTGGTTTTA	2350 PBM fluorescence, median of replicate spots
Table S3 B row 244 (dsDNA) DNA 1: GGTCTTTTCTGTGGTTCTGTCACCTCCTTTGTAAGT DNA 2: ACTTACAAAGGAGGTGACAGAACCACAGAAAAGACC	2300 PBM fluorescence, median of replicate spots
Table S3 B row 2632 (dsDNA) DNA 1: TCTGTTTTGTGGGTTCCCTGCCCCCCTTCGGCCTTT DNA 2: AAAGGCCGAAGGGGGGCAGGGAACCCACAAAACAGA	2250 PBM fluorescence, median of replicate spots
Table S3 B row 1521 (dsDNA) DNA 1: CTCCGCCTTTCACCTCCTAGTAACCGCCCTCCCTTG DNA 2: CAAGGGAGGGCGGTTACTAGGAGGTGAAAGGCGGAG	2240 PBM fluorescence, median of replicate spots
Table S3 B row 2668 (dsDNA) DNA 1: TACAGTCTCTGTGGTTTACTGAGAGGAGGTGGTTCT DNA 2: AGAACCACCTCCTCTCAGTAAACCACAGAGACTGTA	2160 PBM fluorescence, median of replicate spots
Table S3 B row 2151 (dsDNA) DNA 1: CTAAGGCTGTGGTTTGTACCCTAGCAGCAAAGGCAG DNA 2: CTGCCTTTGCTGCTAGGGTACAAACCACAGCCTTAG	2080 PBM fluorescence, median of replicate spots
Table S3 B row 808 (dsDNA) DNA 1: TGTGTTAGTGGTTTTCTCTTACGGCAGGCAGTGGGC DNA 2: GCCCACTGCCTGCCGTAAGAGAAAACCACTAACACA	2040 PBM fluorescence, median of replicate spots
Table S3 B row 3109 (dsDNA) DNA 1: ACTCCACCTACCCACAAAACGCACTGCCTCAGAAGC DNA 2: GCTTCTGAGGCAGTGCGTTTTGTGGGTAGGTGGAGT	2010 PBM fluorescence, median of replicate spots
Table S3 B row 3800 (dsDNA) DNA 1: GACCCAGATACCACACCTACCCTGCTGCCTTTTCTA DNA 2: TAGAAAAGGCAGCAGGGTAGGTGTGGTATCTGGGTC	1960 PBM fluorescence, median of replicate spots
Table S3 B row 2805 (dsDNA) DNA 1: AGCTTAATGCGGTTGGAGAACACCCTGTCTTATTGA DNA 2: TCAATAAGACAGGGTGTTCTCCAACCGCATTAAGCT	1930 PBM fluorescence, median of replicate spots
Table S3 B row 1562 (dsDNA) DNA 1: CCACACCCACAAGGCCAGCCTCAATTCCTCACTCCT DNA 2: AGGAGTGAGGAATTGAGGCTGGCCTTGTGGGTGTGG	1900 PBM fluorescence, median of replicate spots
Table S3 B row 2476 (dsDNA) DNA 1: CAGGTCACCGCAGTCCCCACCACTGCCTGTTATTGT DNA 2: ACAATAACAGGCAGTGGTGGGGACTGCGGTGACCTG	1870 PBM fluorescence, median of replicate spots
Table S3 B row 1286 (dsDNA) DNA 1: CCCAATTGCCTTTGCTCTGCTGTCTGCCAACCGCAA DNA 2: TTGCGGTTGGCAGACAGCAGAGCAAAGGCAATTGGG	1860 PBM fluorescence, median of replicate spots

Binder	binding signal
Table S3 B row 736 (dsDNA) DNA 1: CTCTGAACCGCATGATCTCTAAGACCACTTGCTGTT DNA 2: AACAGCAAGTGGTCTTAGAGATCATGCGGTTCAGAG	1820 PBM fluorescence, median of replicate spots
Table S3 B row 2568 (dsDNA) DNA 1: GTCGCCTGCGGTGACTCAGCTCTTACGGTCACCGCC DNA 2: GGCGGTGACCGTAAGAGCTGAGTCACCGCAGGCGAC	1800 PBM fluorescence, median of replicate spots
Table S3 B row 3020 (dsDNA) DNA 1: TTTTATCGTCCGCGAGCCCTCATCCCACAACTCTTC DNA 2: GAAGAGTTGTGGGATGAGGGCTCGCGGACGATAAAA	1790 PBM fluorescence, median of replicate spots
Table S3 B row 232 (dsDNA) DNA 1: TGTTGTGTGGTTTCAGAGATACGTCCTTGGGTTGCC DNA 2: GGCAACCCAAGGACGTATCTCTGAAACCACACAACA	1750 PBM fluorescence, median of replicate spots
Table S3 B row 1078 (dsDNA) DNA 1: ATTTGTCACCAAACCACAGAGAGGACATGATTGTAA DNA 2: TTACAATCATGTCCTCTCTGTGGTTTGGTGACAAAT	1740 PBM fluorescence, median of replicate spots
Table S3 B row 116 (dsDNA) DNA 1: GTAGTTCCTTGTCTTTCCTTCTGCCGCCGCAGGCCT DNA 2: AGGCCTGCGGCGGCAGAAGGAAAGACAAGGAACTAC	1720 PBM fluorescence, median of replicate spots
Table S3 B row 594 (dsDNA) DNA 1: CCCCTCCCCACACCACAACAAACCTGATCCTTGCGC DNA 2: GCGCAAGGATCAGGTTTGTTGTGGTGTGGGGAGGGG	1700 PBM fluorescence, median of replicate spots
Table S3 B row 1720 (dsDNA) DNA 1: GCCTGCGGTGTGGACTCGCATCATGTCCTCTTTCTG DNA 2: CAGAAAGAGGACATGATGCGAGTCCACACCGCAGGC	1680 PBM fluorescence, median of replicate spots
Table S3 B row 1567 (dsDNA) DNA 1: ACGGAGCTGTGGTTTAACGTTTCAGGTTCGTGGCTA DNA 2: TAGCCACGAACCTGAAACGTTAAACCACAGCTCCGT	1650 PBM fluorescence, median of replicate spots
Table S3 B row 1244 (dsDNA) DNA 1: GGAACCCGCAGAAGCCCCGCCTCCCGTAAGCGGAGC DNA 2: GCTCCGCTTACGGGAGGCGGGGCTTCTGCGGGTTCC	1640 PBM fluorescence, median of replicate spots
Table S3 B row 887 (dsDNA) DNA 1: CACCCTGCCACCTCCCTAAACTCCCCGCACAGGCCG DNA 2: CGGCCTGTGCGGGGAGTTTAGGGAGGTGGCAGGGTG	1620 PBM fluorescence, median of replicate spots
Table S3 B row 3059 (dsDNA) DNA 1: AGGCTGTGGTTATCTGCAAACAGCCCCCGTCCATCC DNA 2: GGATGGACGGGGGCTGTTTGCAGATAACCACAGCCT	1590 PBM fluorescence, median of replicate spots
Table S3 C row 194 (dsDNA) DNA 1: TGGGCAAGCCTTGGGCTTCCGGAGCCAAAAGGCCCA DNA 2: TGGGCCTTTTGGCTCCGGAAGCCCAAGGCTTGCCCA	610 PBM fluorescence, median of replicate spots
Table S3 C row 27 (dsDNA) DNA 1: TGCGCCGCGCCCCGGGTTCCGGAATGCACTCTGAAC DNA 2: GTTCAGAGTGCATTCCGGAACCCGGGGCGCGGCGCA	659 PBM fluorescence, median of replicate spots
Table S3 C row 101 (dsDNA) DNA 1: AGTCAGAAGTTTCAGCGGAAATTGAAGCGCGGCCCT DNA 2: AGGGCCGCGCTTCAATTTCCGCTGAAACTTCTGACT	665 PBM fluorescence, median of replicate spots
Table S3 C row 20 (dsDNA) DNA 1: TACCTCTGTAACAGGTTTCCTGTCCCTGCCCAGCTT DNA 2: AAGCTGGGCAGGGACAGGAAACCTGTTACAGAGGTA	673 PBM fluorescence, median of replicate spots
Table S3 C row 106 (dsDNA) DNA 1: ACCAGGCGACGATGCCGGAACGCGCAAGTACGCGAG DNA 2: CTCGCGTACTTGCGCGTTCCGGCATCGTCGCCTGGT	676 PBM fluorescence, median of replicate spots
Table S3 C row 70 (dsDNA) DNA 1: GGCCGCGCCCAGACCCGGAAGCGGGGCCGTCACGTG DNA 2: CACGTGACGGCCCCGCTTCCGGGTCTGGGCGCGGCC	680 PBM fluorescence, median of replicate spots
Table S3 C row 121 (dsDNA) DNA 1: CACTCATTCCAGATCAGGAAGTGATCAGTGCCTCAA DNA 2: TTGAGGCACTGATCACTTCCTGATCTGGAATGAGTG	680 PBM fluorescence, median of replicate spots
Table S3 C row 198 (dsDNA) DNA 1: GGCAGCAGCCTTCGGCTTCCGCTTTTCGGCTTTCGC DNA 2: GCGAAAGCCGAAAAGCGGAAGCCGAAGGCTGCTGCC	686 PBM fluorescence, median of replicate spots
Table S3 C row 100 (dsDNA) DNA 1: TGGCTAGGGGCAGGGCTTCCGGCCTCGAACTTTAAC DNA 2: GTTAAAGTTCGAGGCCGGAAGCCCTGCCCCTAGCCA	688 PBM fluorescence, median of replicate spots
Table S3 C row 8 (dsDNA) DNA 1: GCCAGGCCGGCGGCGCGGAAGGTCTCCTGTGCCTGC DNA 2: GCAGGCACAGGAGACCTTCCGCGCCGCCGGCCTGGC	689 PBM fluorescence, median of replicate spots
